Measured values reported in the supplement of paper PMC9233669.
Variants at the floor of the assay were thinned out.

Columns and labels:
[1] = system: biotinyl-Phe-oxazolone; assay: self-aminoacylation, catalytic enhancement (BFO) (fold over background); higher = more active; k-Seq, kA / k0A0; sequences stand for … in GGGAAUGGAUCCACAUCUACGAAUUC…UUCACUGCAGACUUGACGAAGCUG
Summary of the method: (§1)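 Working in 50 μL HEPES/NaCl/KCl/MgCl2/CaCl2 buffer with 5% acetonitrile at pH 6.9–7.0, mutagenized RNA pools (0.43 μM; 21-nt variable region) were reacted with 2–1250 μM of each biotinyl-aminoacyl-oxazolone for 90 minutes at room temperature. Streptavidin capture followed, with quantification by triplicate qPCR and Illumina sequencing. Catalytic enhancement is reported as median kA over the uncatalyzed rate, the low-activity peak of a bimodal Gaussian fit to the data.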

[2] = system: biotinyl-Ile-oxazolone; assay: self-aminoacylation, catalytic enhancement (BIO) (fold over background); higher = more active; k-Seq, kA / k0A0; sequences stand for … in GGGAAUGGAUCCACAUCUACGAAUUC…UUCACUGCAGACUUGACGAAGCUG
Summary of the method: as §1

[3] = system: biotinyl-Met-oxazolone; assay: self-aminoacylation, catalytic enhancement (BMO) (fold over background); higher = more active; k-Seq, kA / k0A0; sequences stand for … in GGGAAUGGAUCCACAUCUACGAAUUC…UUCACUGCAGACUUGACGAAGCUG
Summary of the method: as §1

[4] = system: biotinyl-Val-oxazolone; assay: self-aminoacylation, catalytic enhancement (BVO) (fold over background); higher = more active; k-Seq, kA / k0A0; sequences stand for … in GGGAAUGGAUCCACAUCUACGAAUUC…UUCACUGCAGACUUGACGAAGCUG
Summary of the method: as §1

[5] = system: biotinyl-Leu-oxazolone; assay: self-aminoacylation, catalytic enhancement (BLO) (fold over background); higher = more active; k-Seq, kA / k0A0; sequences stand for … in GGGAAUGGAUCCACAUCUACGAAUUC…UUCACUGCAGACUUGACGAAGCUG
Summary of the method: as §1

[6] = system: biotinyl-Trp-oxazolone; assay: self-aminoacylation, catalytic enhancement (BWO) (fold over background); higher = more active; k-Seq, kA / k0A0; sequences stand for … in GGGAAUGGAUCCACAUCUACGAAUUC…UUCACUGCAGACUUGACGAAGCUG
Summary of the method: as §1

| Sequence | self-aminoacylation [1] | self-aminoacylation [2] | self-aminoacylation [3] | self-aminoacylation [4] | self-aminoacylation [5] | self-aminoacylation [6] |
| --- | --- | --- | --- | --- | --- | --- |
| CCACAAUUCAAACAAUCGGUC [Fam1B.1 aminoacylation ribozyme variant] | 18.1 | 1.26 | 1.08 | 1.04 | 1.19 | 8.88 |
| AUUAACCUAGGUCAUCGGGCG [Fam2.2 aminoacylation ribozyme variant] | 4.51 | 2.55 | 3.99 | 2.63 | 5.44 | 2.17 |
| CUACUCCAAACAAUCGGUCUG [Fam1A.1 aminoacylation ribozyme variant] | 3.09 | 0.801 | 0.786 | 0.825 | 0.731 | 1.95 |
| CUACUUCAAAGAAGCGGUCUG [Fam1A.1 aminoacylation ribozyme variant] | 1.17 | 1.09 | 1.01 | 0.988 | 0.82 | 0.832 |
| CUACUCCAAACAAUCGGUCUC [Fam1A.1 aminoacylation ribozyme variant] | 2.41 | 0.71 | 0.753 | 0.723 | 0.513 | 1.34 |
| CCACACUACAAGCAAUCGUUC [Fam1B.1 aminoacylation ribozyme variant] | 0.644 | 0.643 | 0.548 | 0.679 | 0.54 | 0.468 |
| CAACACUUCAAGCAAACGGUC [Fam1B.1 aminoacylation ribozyme variant] | 0.797 | 0.92 | 0.678 | 0.815 | 0.68 | 0.739 |
| UUUACCCUGGUCAUCCAGUGA [Fam2.1 aminoacylation ribozyme variant] | 15.7 | 3.12 | 4.91 | 2.98 | 4.72 | 6.23 |
| CCAGACUUCAAGCAAUCGGUU [Fam1B.1 aminoacylation ribozyme variant] | 7.61 | 2.02 | 2.04 | 2.43 | 2.69 | 6.59 |
| CUAAUGCAAACAAUCGGUCUG [Fam1A.1 aminoacylation ribozyme variant] | 0.853 | 0.612 | 0.631 | 0.577 | 0.55 | 0.581 |
| CUACUUCUAACAGUCGGUCUG [Fam1A.1 aminoacylation ribozyme variant] | 0.402 | 0.521 | 0.672 | 0.597 | 0.611 | 0.349 |
| AAGAUUGCUAAUAGUCUCAAG [Fam3.1 aminoacylation ribozyme variant] | 1.48 | 1.1 | 0.751 | 1.08 | 1.09 | 1.18 |
| CGACUUCAAACAAUGGGUCUG [Fam1A.1 aminoacylation ribozyme variant] | 0.777 | 1.2 | 1.2 | 1.09 | 0.941 | 0.968 |
| AUUACCCUGGUCAUCGAAUGU [Fam2.1 aminoacylation ribozyme variant] | 0.64 | 0.894 | 0.925 | 0.788 | 1.06 | 0.653 |
| UUAACCCUGGUCAUCGAGUGA [Fam2.1 aminoacylation ribozyme variant] | 20.2 | 5.63 | 11.7 | 5.9 | 12 | 11.5 |
| AGUACCCUGAUCAUCGAGUGA [Fam2.1 aminoacylation ribozyme variant] | 26.6 | 3.22 | 6.82 | 3.5 | 6.72 | 8.64 |
| GUACUUCAAACAUUCGGUCUG [Fam1A.1 aminoacylation ribozyme variant] | 6.13 | 1.63 | 1.6 | 1.96 | 1.66 | 2.34 |
| AUUACCCUGUGCAUCGAGUGA [Fam2.1 aminoacylation ribozyme variant] | 16.8 | 2.47 | 6.14 | 3.05 | 5.11 | 5.89 |
| AAGUUUGCUACUACUCGCAAG [Fam3.1 aminoacylation ribozyme variant] | 0.639 | 0.565 | 0.647 | 0.855 | 0.791 | 0.621 |
| AUUACCAUGGUCAUCGUGUGA [Fam2.1 aminoacylation ribozyme variant] | 27.8 | 1.9 | 4.58 | 2.2 | 4.26 | 5.96 |
| AUUCACGUAGGUCAUCCGGUG [Fam2.2 aminoacylation ribozyme variant] | 120 | 7.72 | 13.2 | 8.57 | 17 | 12.1 |
| AGGUUUGGUAAUAGUCGCAAG [Fam3.1 aminoacylation ribozyme variant] | 3.19 | 1.82 | 1.72 | 1.41 | 1.77 | 2.22 |
| CCACACUUCAAUCAAUCCGUC [Fam1B.1 aminoacylation ribozyme variant] | 0.663 | 0.655 | 0.641 | 0.823 | 0.61 | 0.611 |
| AUUACCCUGGUCUUGGAGUGA [Fam2.1 aminoacylation ribozyme variant] | 5.63 | 2.27 | 2.24 | 1.98 | 3.23 | 4.3 |
| AUGACCCCGGUCAUCGAGUGA [Fam2.1 aminoacylation ribozyme variant] | 39.9 | 3.51 | 6.75 | 3.3 | 8.55 | 6.78 |
| AUUACACUGAUCAUCGAGUGA [Fam2.1 aminoacylation ribozyme variant] | 21.1 | 3.19 | 6.59 | 3.71 | 6.95 | 7.71 |

| Sequence | self-aminoacylation [1] | self-aminoacylation [2] | self-aminoacylation [3] | self-aminoacylation [4] | self-aminoacylation [5] | self-aminoacylation [6] |
| --- | --- | --- | --- | --- | --- | --- |
| AUUCAGCUAGGUCAUGGGGUG [Fam2.2 aminoacylation ribozyme variant] | 17.8 | 2.74 | 3.03 | 2.98 | 2.94 | 3.72 |
| AUUUCGCUGGUCAUCGAGUGA [Fam2.1 aminoacylation ribozyme variant] | 28.5 | 2.84 | 4.64 | 3.16 | 5.38 | 5.72 |
| AUUCACCUCGGUCAUAGGGUG [Fam2.2 aminoacylation ribozyme variant] | 5.66 | 1.11 | 1.41 | 1.19 | 1.76 | 1.43 |
| AAGUUUGGUAAUAGUCGCAAU [Fam3.1 aminoacylation ribozyme variant] | 3.13 | 2.02 | 1.65 | 1.62 | 1.8 | 2.14 |
| UUACACUUCAAGCAAUCGGUC [Fam1B.1 aminoacylation ribozyme variant] | 30.4 | 1.25 | 1.26 | 1.14 | 1.5 | 15.7 |
| AUUACCCUGUUCAUCGCGUGA [Fam2.1 aminoacylation ribozyme variant] | 171 | 9.25 | 23.5 | 11.7 | 25.1 | 25.5 |
| AAUUUUGCUAAUAGUCGCAAC [Fam3.1 aminoacylation ribozyme variant] | 2.23 | 1.64 | 1.41 | 1.8 | 1.44 | 1.95 |
| AUUUCCCAGGUCAUCGAGUGA [Fam2.1 aminoacylation ribozyme variant] | 26.3 | 2.89 | 5.06 | 3.4 | 5.63 | 6.32 |
| ACUCACCGAGGUCAUCGGGUG [Fam2.2 aminoacylation ribozyme variant] | 41.6 | 4.34 | 6.05 | 5.07 | 7.63 | 8.16 |
| AUUACCCUGCUAAUCGAGUGA [Fam2.1 aminoacylation ribozyme variant] | 11.2 | 1.44 | 2.41 | 1.58 | 2.41 | 3.01 |
| CCACUCUUCAAGCAAUCGGUG [Fam1B.1 aminoacylation ribozyme variant] | 23.1 | 3.43 | 4.76 | 3.46 | 7.12 | 5.05 |
| AUUACCCAGGUCACCGAGUGA [Fam2.1 aminoacylation ribozyme variant] | 66.2 | 4.17 | 8.63 | 4.49 | 10.2 | 10.3 |
| CCACACUCCAAGAAAUCGGUC [Fam1B.1 aminoacylation ribozyme variant] | 0.991 | 1.31 | 0.768 | 0.973 | 0.848 | 1 |
| CCAAACUUCUAGCAAUCGGUC [Fam1B.1 aminoacylation ribozyme variant] | 1.01 | 0.961 | 0.839 | 0.952 | 0.733 | 0.667 |
| AUUCACCCAGGUCUUCGGGUG [Fam2.2 aminoacylation ribozyme variant] | 35 | 3.28 | 5.3 | 3.84 | 5.78 | 5.13 |
| AUUCACCCAGGUAAUCGGGUG [Fam2.2 aminoacylation ribozyme variant] | 18.6 | 2.26 | 3.1 | 2.14 | 3.88 | 2.46 |
| AUAACCCUGGUCAUAGAGUGA [Fam2.1 aminoacylation ribozyme variant] | 49 | 3.62 | 8.34 | 3.61 | 8.65 | 9.78 |
| CUUCACUUCAAGCAAUCGGUC [Fam1B.1 aminoacylation ribozyme variant] | 46.4 | 1.05 | 1.16 | 1.15 | 1.55 | 20.9 |
| AUUACCCUGAUCAACGAGUGA [Fam2.1 aminoacylation ribozyme variant] | 66.4 | 6.3 | 14.6 | 6.16 | 15 | 18.5 |
| CCACACUUCAAGCAGCCGGUC [Fam1B.1 aminoacylation ribozyme variant] | 0.916 | 1.97 | 1.32 | 1.56 | 1.82 | 1.68 |
| CUCCACCUAGGUCAUCGGGUG [Fam2.2 aminoacylation ribozyme variant] | 36.3 | 3.95 | 5.98 | 5.19 | 5.74 | 7.04 |
| AUUAGCCUGGUCAUCGAGUGA [Fam2.1 aminoacylation ribozyme variant] | 21.7 | 4.61 | 7.22 | 4.55 | 7.65 | 9.2 |
| CUCCUUCAAACAAUGGGUCUG [Fam1A.1 aminoacylation ribozyme variant] | 0.816 | 0.855 | 0.901 | 0.982 | 1.05 | 0.877 |
| AAGUUUGCUGUUAGUCGCAAG [Fam3.1 aminoacylation ribozyme variant] | 0.937 | 0.911 | 0.895 | 0.855 | 0.912 | 1.37 |
| AUUACUCUGGUCAUCCAGUGA [Fam2.1 aminoacylation ribozyme variant] | 17.3 | 3.2 | 5.01 | 2.74 | 5.29 | 6.01 |
